{"source": "patent US20250066499A1", "about": "(SUNSHINE GUOJIAN PHARMACEUTICAL SHANGHAI, published 2025)", "key": {"CD73-ND-D142A": {"target": "T1, CD73-ND-D142A (human, UniProt P21589 27-317)", "T1 construct": "Alanine mutant of CD73-ND", "T1 sequence": "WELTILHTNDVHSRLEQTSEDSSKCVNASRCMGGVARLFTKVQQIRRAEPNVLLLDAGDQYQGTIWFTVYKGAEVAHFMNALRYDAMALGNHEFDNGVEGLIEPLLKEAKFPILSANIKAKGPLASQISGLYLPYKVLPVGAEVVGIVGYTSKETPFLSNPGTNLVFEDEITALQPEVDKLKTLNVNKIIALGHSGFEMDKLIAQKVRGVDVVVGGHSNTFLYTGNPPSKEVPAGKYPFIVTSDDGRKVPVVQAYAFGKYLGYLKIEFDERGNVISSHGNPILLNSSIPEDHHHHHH", "experiment": "ELISA, high plateau value (OD 450 nm)", "procedure": "(§1) The ELISA plates were coated with SA protein diluted to 1.5 μg/mL in coating buffer (50 mM carbonate coating buffer, pH 9.6) and incubated overnight at 4° C. The supernatant was discarded, and the plates were washed three times with PBST. Then, 5% skimmed milk powder prepared with PBS was added for blocking and the plates were incubated for 2 h at 37° C. After washing the plates once with PBST, CD73-biotin protein (prepared by biotinylating CD73-His protein according to the EZ-Link NHS-Biotin Reagent instructions) was diluted to 0.5 μg/mL and added at 100 μL/well for incubation at room temperature for 1 h. The plates were washed three times with PBST, and the prepared murine-derived monoclonal antibodies against human CD73 were serially diluted with 1% BSA buffer prepared with PBST and added to the ELISA plates at 100 μl/well. The plates were incubated at 37° C. for 1 h. After washing the plates three times with PBST, HRP-labeled goat anti-mouse IgG secondary antibody was added and the plates were incubated for 30 min at 37° C. After washing the plates three times with PBST, the residual droplets were patted dry on absorbent paper as much as possible. Then, 100 μl of TMB color developing solution was added to each well, and the plates were incubated in the dark at room temperature for 5 min for color development. Subsequently, 50 μl of 2M H₂SO₄ stop solution was added to each well to terminate the substrate reaction. The OD values were read at 450 nm using a multimode microplate reader to analyze the binding ability of the tested antibodies to the target antigen human CD73-His.\n(§2) Referring to the experimental method in Example 3, the affinity of 48A11-HuV33 for various mutant proteins of CD73-ND was determined. The SA protein was diluted to 1 μg/mL for coating the ELISA plates, and the biotinylated CD73 protein (CD73-biotin) was used at a concentration of 0.1 μg/mL."}, "CD73-ND-his [1]": {"target": "T2, CD73-ND-his (human, UniProt P21589 27-317)", "T2 construct": "Biotinylated and captured on streptavidin in the ELISA", "T2 sequence": "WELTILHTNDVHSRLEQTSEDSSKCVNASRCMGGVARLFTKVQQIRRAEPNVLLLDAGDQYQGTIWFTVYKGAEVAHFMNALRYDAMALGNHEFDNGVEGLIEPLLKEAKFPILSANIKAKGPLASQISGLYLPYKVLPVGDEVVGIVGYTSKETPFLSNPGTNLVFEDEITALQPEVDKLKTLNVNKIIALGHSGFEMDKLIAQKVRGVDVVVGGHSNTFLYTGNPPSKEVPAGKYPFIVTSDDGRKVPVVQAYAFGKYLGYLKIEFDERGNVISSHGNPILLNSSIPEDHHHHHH", "experiment": "ELISA, high plateau value (OD 450 nm)", "procedure": "as §1, §2"}, "CD73-ND-L184A": {"target": "T3, CD73-ND-L184A (human, UniProt P21589 27-317)", "T3 construct": "Alanine mutant of CD73-ND", "T3 sequence": "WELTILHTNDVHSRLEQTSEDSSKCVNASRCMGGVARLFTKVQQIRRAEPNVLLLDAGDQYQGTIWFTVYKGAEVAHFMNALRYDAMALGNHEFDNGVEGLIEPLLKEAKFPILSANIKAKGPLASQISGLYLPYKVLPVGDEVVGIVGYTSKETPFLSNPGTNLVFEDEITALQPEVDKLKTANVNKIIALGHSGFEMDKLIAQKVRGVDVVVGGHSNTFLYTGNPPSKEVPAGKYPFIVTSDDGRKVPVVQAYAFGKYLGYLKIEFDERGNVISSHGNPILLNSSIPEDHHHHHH", "experiment": "ELISA, high plateau value (OD 450 nm)", "procedure": "as §1, §2"}, "CD73-ND-K136A": {"target": "T4, CD73-ND-K136A (human, UniProt P21589 27-317)", "T4 construct": "Alanine mutant of CD73-ND", "T4 sequence": "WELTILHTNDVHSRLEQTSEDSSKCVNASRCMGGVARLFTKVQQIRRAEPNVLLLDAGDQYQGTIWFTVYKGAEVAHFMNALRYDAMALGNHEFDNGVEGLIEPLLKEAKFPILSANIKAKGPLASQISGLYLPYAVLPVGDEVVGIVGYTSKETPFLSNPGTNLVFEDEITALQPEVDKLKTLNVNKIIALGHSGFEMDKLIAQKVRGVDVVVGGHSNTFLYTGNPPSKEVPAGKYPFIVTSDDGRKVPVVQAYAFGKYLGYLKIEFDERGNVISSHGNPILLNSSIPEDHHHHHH", "experiment": "ELISA; decline multiple of Top against CD73-ND", "procedure": "as §1, §2"}, "CD73-ND-Y132A": {"target": "T5, CD73-ND-Y132A (human, UniProt P21589 27-317)", "T5 construct": "Alanine mutant of CD73-ND", "T5 sequence": "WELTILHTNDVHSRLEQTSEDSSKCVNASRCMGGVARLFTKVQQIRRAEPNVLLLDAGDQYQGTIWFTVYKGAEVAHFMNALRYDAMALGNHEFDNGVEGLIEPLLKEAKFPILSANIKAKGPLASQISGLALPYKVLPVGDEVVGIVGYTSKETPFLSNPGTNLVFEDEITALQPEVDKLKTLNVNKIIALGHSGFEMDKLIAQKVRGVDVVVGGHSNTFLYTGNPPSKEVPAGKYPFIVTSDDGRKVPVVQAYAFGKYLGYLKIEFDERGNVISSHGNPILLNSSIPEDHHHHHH", "experiment": "ELISA; decline multiple of Top against CD73-ND", "procedure": "as §1, §2"}, "CD73-ND-his [2]": {"target": "T2, CD73-ND-his", "experiment": "ELISA; decline multiple of Top against CD73-ND", "procedure": "as §1, §2"}, "CD73-ND-L138A": {"target": "T6, CD73-ND-L138A (human, UniProt P21589 27-317)", "T6 construct": "Alanine mutant of CD73-ND", "T6 sequence": "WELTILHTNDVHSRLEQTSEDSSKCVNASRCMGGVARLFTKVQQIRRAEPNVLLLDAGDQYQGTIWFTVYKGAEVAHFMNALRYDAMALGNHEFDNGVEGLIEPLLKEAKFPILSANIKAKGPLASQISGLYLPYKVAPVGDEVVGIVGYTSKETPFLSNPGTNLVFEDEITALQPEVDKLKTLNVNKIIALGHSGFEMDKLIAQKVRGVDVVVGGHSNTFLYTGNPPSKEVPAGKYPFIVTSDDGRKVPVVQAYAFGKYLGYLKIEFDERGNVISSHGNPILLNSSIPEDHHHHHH", "experiment": "ELISA; decline multiple of Top against CD73-ND", "procedure": "as §1, §2"}}}
{"binder": "48A11-HuV33 (antibody, human IgG4, V domains shown, Humanized) VH: QVQLVQSGAEVKKPGASVKVSCKASGYTFTSYWMHWVRQAPGQGLEWIGEINPSIGRTNYNEKFKSRVTLTRDTSTSTAYMELSSLRSEDTAVYYCARRVYGTMDYWGQGTLVTVSS VL: DIQMTQSPSSLSASVGDRVTITCKASQDINSYLSWFQQKPGKSPKLLIYRANIWVDGVPSRFSGSGSGQDYTFTISSLQPEDIATYYCLQYDELYTFGQGTKVEIK", "values": [{"measurement": "Top", "setting": "CD73-ND-D142A", "result": 1.84}, {"measurement": "Top", "setting": "CD73-ND-his [1]", "result": 2}, {"measurement": "Top", "setting": "CD73-ND-L184A", "result": 1.7}, {"measurement": "Ratio(Top)", "setting": "CD73-ND-K136A", "result": 1, "unit": "fold"}, {"measurement": "Ratio(Top)", "setting": "CD73-ND-Y132A", "result": 8.2, "unit": "fold"}, {"measurement": "Ratio(Top)", "setting": "CD73-ND-his [2]", "result": 1, "unit": "fold"}, {"measurement": "Ratio(Top)", "setting": "CD73-ND-L138A", "result": 1.1, "unit": "fold"}]}
